Experimental data taken from PMC314469, “Protein Interaction Networks by Proteome Peptide Scanning” (PLoS Biology, 2004).

How the values were obtained:
[1] = molecular target: T1, amphyphisin SH3 (AMPH_HUMAN), P49418; assay: SPOT array
T1 chain: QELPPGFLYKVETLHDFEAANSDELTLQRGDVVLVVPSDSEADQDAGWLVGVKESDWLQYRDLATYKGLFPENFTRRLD

[2] = molecular target: endophilin SH3 (SH3G2_HUMAN), Q99962; assay: SPOT array

| Binder | normalised SPOT signal, Boehringer light units (BLU); mean over the file's lines of this peptide [1] | normalised SPOT signal, Boehringer light units (BLU); mean over the file's lines of this peptide [2] |
| --- | --- | --- |
| RAEVPTKPPLPPAR [Q9UKM7 224-238] | 8090 | 2440 |
| ATGTLKRPTSLSRH [Q92619 87-100] | 32.9 | 23.6 |
| QYRSLPRPAKSSSM [Q9H9S9 177-190] | 220 | 764 |
| QYGFPRRPPPRGSQ [Q9BQH3 166-180] | 3010 | 2120 |
| ATFSLRRPWTEAGA [P20800 107-120] | 20.7 | 61.3 |
| QVMVIKRPGRKRKA [P51608 244-257] | 1620 | 240 |
| QVKDIRRPERRHSD [Q9UI45 1886-1899] | 534 | 123 |
| QVIRPPRPPKVLGL [P39193 571-585] | 8910 | 14600 |
| RDAFLKRPISNKYM [Q9H278 225-238] | 34.7 | 254 |
| RAQRIRRPFRPILN [Q9NR60 64-77] | 180 | 80.9 |
| QVNHLKRPVSGVGD [Q92610 1091-1104] | 42.5 | 0 |
| RSWVLRRPMLAAAG [P36776 15-28] | 19 | 412 |
| REASFKRPVVILGP [O95049 627-640] | 47.4 | 18.3 |
| RAASLRRPRRAASR [Q8WYB4 11-24] | 80.1 | 72.5 |
| RADIPKRPSYVAPL [Q9Y2F3 1400-1413] | 47.6 | 1460 |
| RFALFKRPKANGVK [Q9GZY5 40-53] | 19.2 | 13.5 |
| RELDLSRPSRSISL [Q12879 1300-1313] | 3150 | 98.7 |
| RSSFPVRPPTASTI [Q9NPY2 259-273] | 167 | 3140 |
| RDFIISRPTKLKSL [Q9Y6K5 932-945] | 108 | 182 |
| QVYVLKRPHVDEFL [O15194 206-219] | 19.5 | 58.8 |
| QVILPPRPPKVLGL [P39188 470-484] | 936 | 5000 |

| Binder | normalised SPOT signal, Boehringer light units (BLU); mean over the file's lines of this peptide [1] | normalised SPOT signal, Boehringer light units (BLU); mean over the file's lines of this peptide [2] |
| --- | --- | --- |
| REAALERPRRTKRE [Q96LA8 29-42] | 2500 | 330 |
| RAPSPARPRRPHAS [Q9H8S7 104-117] | 6640 | 2140 |
| AASSPARPPGLQRS [Q9BQ89 173-187] | 136 | 3950 |
| REAGFKRPVVLFGP [Q9UDY2 725-738] | 24.6 | 23.8 |
| RAPPPSRPPPRPSV [Q9H6X2 550-564] | 4340 | 11000 |
| QYNFLRRPQRMPVS [Q9BZC7 2011-2024] | 1220 | 764 |
| RAWIPGKPPSPPRG [Q14069 9-23] | 1950 | 4770 |
| REDRFRRPRDEGGW [Q14152 1235-1248] | 46 | 116 |
| RAPRPTRPDKARRL [P39030 37-50] | 219 | 2140 |
| RSVRPSRPPRGFQP [O43184 749-763] | 12400 | 13300 |
| RASSPKRPGPWSEP [P08922 650-663] | 48.7 | 66.3 |
| QVVGPHRPPALDDR [Q14097 329-343] | 60.7 | 43.1 |
| RAVDLRRPLLHELL [Q9NXT9 123-136] | 114 | 67.7 |
| RDLIFKRPSRQFQY [Q92797 568-581] | 5070 | 190 |
| REKKPPRPPKKKYQ [Q9NR48 1976-1990] | 56.2 | 6480 |
| QVIHPPRPPKVLGL [P39194 572-585] | 117 | 423 |
| RAITFRRPSRVHYY [Q96RS3 192-205] | 708 | 33.9 |
| ATDSPRRPSRSTGG [Q9H6U6 6-19] | 11300 | 472 |
| QVYVLKRPYVDEFL [O14595 137-150] | 6.6 | 28.4 |
| REVSLKRPLGNSPG [P17036 132-145] | 39.7 | 55.7 |
| QVIGPHRPPELHDR [P20813 329-343] | 66.4 | 82.5 |
